According to patent US20220323445A1, “REDUCING IMMUNOGENICITY TO PEGLOTICASE” (Horizon Therapeutics Ireland DAC, priority 2020, published 2022):

Test system: serum uric acid (sUA)
Test: Serum uric acid (sUA) levels and sUA responders, open-label study of pegloticase with MTX (NCT03635957)
Type: in vivo, human
Method: The primary objective is to estimate the response rate during Month 6 (Weeks 20, 22, and 24), as measured by the sustained normalization of serum uric acid (SUA) to <6 mg/dL for at least 80% of the time during Month 6 in subjects receiving KXX with MTX.
The primary efficacy outcome endpoint is the sustained normalization of SUA to <6 mg/dL for at least 80% of the time during month 6 (weeks 20, 22, and 24) in subjects receiving KXX with MTX. This is slightly below the urate solubility threshold and this threshold has been the accepted standard for nearly all modern gout trials. Participants who achieve this endpoint were classified as “responders.” Serum uric acid (SUA) responders may also be defined as participants achieving and maintaining SUA <6 mg/dL for at least 80% of the time during Month 6 (Weeks 20, 22, and 24).
Blood samples may be collected prior to each pegloticase infusion for measurement of SUA levels using the Beckman Coulter AU System Uric Acid procedure. Participants were declared “non-responders” if there were SUA measures >6 mg/dL at 2 consecutive study visits beginning with the week 2 visit. […] If the SUA goal is not maintained before or at the 12-week mark, it was assumed that the participant had developed clinically relevant anti-pegloticase antibody and they received no further infusions. This assumption and subsequent discontinuation of pegloticase was consistent with the protocol of large phase III randomized controlled trials and the product label. A formal stopping rule was 2 occasions of SUA levels of greater than 6 mg/dL.
Clinical Chemistry—Blood samples were collected prior to each pegloticase infusion for measurement of SUA levels (primary efficacy parameter) using the Beckman Coulter AU System Uric Acid procedure. In this procedure uric acid is converted to hydrogen peroxide. Hydrogen peroxide reacts with reagent to produce a chromophore which is read bichromatically at 660/800 nm. The amount of dye formed is proportional to the uric acid concentration in the sample.
Serum samples for measurement of SUA levels were collected at the Screening Visit, the Week −4 Visit (prior to the first dose of MTX), and the Week −2 Visit during the MTX Run-in Period; within 48 hours prior to each pegloticase infusion and after the end of each pegloticase infusion prior to discharge from the site during the Pegloticase+IMM Period; at the non-infusion Week 52/End of Study/Early Termination Visits and at the Post Treatment 3 and 6 Month Follow-up Visits. Additional serum samples for SUA levels were collected at optional non-infusion (Frequent Sampling) Visits at Weeks 1 and 7. […] Subjects with SUA level >6 mg/dL at 2 consecutive visits beginning at Week 2 visit discontinued treatment, completed the End of Pegloticase Infusion Visit procedures within 2 weeks and continued the subject visits according to the protocol (without treatment).
Efficacy analyses were performed using the modified intention-to-treat (mITT) population, defined as all enrolled subjects who received ≥1 dose of pegloticase. The proportion of Month 6 responders was summarized, along with a 95% confidence interval for the proportion. The proportion of Month 3 and overall (Months 3 and 6 combined) responders was analyzed similarly.
A subject was declared a non-responder if the subject had SUA level >6 mg/dL at 2 consecutive study visits beginning with the Week 2 Visit. In addition, a subject who withdraws from study treatment for any reason after the first dose of pegloticase in the KXX+MTX Period and prior to Month 6 (for the primary endpoint) or Month 3 (for the secondary endpoint) was considered a non-responder if SUA values were not collected at the planned time points.
Patients were administered oral MTX (15 mg/week) and folate (1 mg/day) 4 weeks prior to the first pegloticase infusion (Day 1) and throughout the pegloticase treatment period. […]

[1] = Week 18 - Pre-Infusion, Month 6 sUA Responders
[2] = Week 18 - Pre-Infusion, mITT, n=11
[3] = Week 20 - Post-Infusion, Month 6 sUA Responders
[4] = Week 20 - Post-Infusion, mITT, n=11
[5] = Week 20 - Pre-Infusion, Month 6 sUA Responders
[6] = Week 20 - Pre-Infusion, mITT, n=11
[7] = Week 22 - Post-Infusion, Month 6 sUA Responders
[8] = Week 22 - Post-Infusion, mITT, n=11
[9] = Week 22 - Pre-Infusion, Month 6 sUA Responders
[10] = Week 22 - Pre-Infusion, mITT, n=11
[11] = Week 24 - Post-Infusion, Month 6 sUA Responders
[12] = Week 24 - Post-Infusion, mITT, n=5
[13] = Week 24 - Pre-Infusion, Month 6 sUA Responders

B1: pegloticase (protein)
chain: TYKKNDEVEFVRTGYGKDMIKVLHIQRDGKYHSIKEVATTVQLTLSSKKDYLHGDNSDVIPTDTIKNTVNVLAKFKGIKSIETFAVTICEHFLSSFKHVIRAQVYVEEVPWKRFEKNGVKHVHAFIYTPTGTHFCEVEQIRNGPPVIHSGIKDLKVLKTTQSGFEGFIKDQFTTLPEVKDRCFATQVYCKWRYHQGRDVDFEATWDTVRSIVLQKFAGPYDKGEYSPSVQKTLYDIQVLTLGQVPEIEDMEISLPNIHYLNIDMSKMGLINKEEVLLPLDNPYGKITGTVKRKLSSRL
modifications: monomethoxy PEG conjugated; Krystexxa Sequence
notes: covalent conjugate of uricase produced by a genetically modified strain of Escherichia coli and monomethoxypoly (ethylene glycol)
[1]
  sUA Change from Baseline, Mean: -8.97 mg/dL
  sUA Change from Baseline, Median: -8.80 mg/dL
  sUA Observed, Mean: 0.30 mg/dL
  sUA Observed, Median: 0.30 mg/dL
[2]
  sUA < 6 mg/dL, n (%): 11 (100%)
  sUA Change from Baseline, Mean (SD): −8.97 (2.810) mg/dL
  sUA Change from Baseline, Median: -8.80 mg/dL
  sUA Observed, Mean (SD): 0.30 (0.000) mg/dL
  sUA Observed, Median: 0.30 mg/dL
[3]
  sUA < 6 mg/dL, %: (100%)
  sUA Change from Baseline, Mean: -8.97 mg/dL
  sUA Change from Baseline, Median: -8.80 mg/dL
  sUA Observed, Mean: 0.30 mg/dL
  sUA Observed, Median: 0.30 mg/dL
[4]
  sUA < 6 mg/dL, n (%): 11 (100%)
  sUA Change from Baseline, Mean (SD): −8.97 (2.810) mg/dL
  sUA Change from Baseline, Median: -8.80 mg/dL
  sUA Observed, Mean (SD): 0.30 (0.000) mg/dL
  sUA Observed, Median: 0.30 mg/dL
[5]
  sUA < 6 mg/dL, %: (100%)
  sUA Change from Baseline, Mean: -8.97 mg/dL
  sUA Change from Baseline, Median: -8.80 mg/dL
  sUA Observed, Mean: 0.30 mg/dL
  sUA Observed, Median: 0.30 mg/dL
[6]
  sUA < 6 mg/dL, n (%): 11 (100%)
  sUA Change from Baseline, Mean (SD): −8.97 (2.810) mg/dL
  sUA Change from Baseline, Median: -8.80 mg/dL
  sUA Observed, Mean (SD): 0.30 (0.000) mg/dL
  sUA Observed, Median: 0.30 mg/dL
[7]
  sUA < 6 mg/dL, %: (100%)
  sUA Change from Baseline, Mean: -8.97 mg/dL
  sUA Change from Baseline, Median: -8.80 mg/dL
  sUA Observed, Mean: 0.30 mg/dL
  sUA Observed, Median: 0.30 mg/dL
[8]
  sUA < 6 mg/dL, n (%): 11 (100%)
  sUA Change from Baseline, Mean (SD): −8.97 (2.810) mg/dL
  sUA Change from Baseline, Median: -8.80 mg/dL
  sUA Observed, Mean (SD): 0.30 (0.000) mg/dL
  sUA Observed, Median: 0.30 mg/dL
[9]
  sUA < 6 mg/dL, %: (100%)
  sUA Change from Baseline, Mean: -8.97 mg/dL
  sUA Change from Baseline, Median: -8.80 mg/dL
  sUA Observed, Mean: 0.30 mg/dL
  sUA Observed, Median: 0.30 mg/dL
[10]
  sUA < 6 mg/dL, n (%): 11 (100%)
  sUA Change from Baseline, Mean (SD): −8.97 (2.810) mg/dL
  sUA Change from Baseline, Median: -8.80 mg/dL
  sUA Observed, Mean (SD): 0.30 (0.000) mg/dL
  sUA Observed, Median: 0.30 mg/dL
[11]
  sUA < 6 mg/dL, %: (100%)
  sUA Change from Baseline, Mean: -9.18 mg/dL
  sUA Change from Baseline, Median: -9.30 mg/dL
  sUA Observed, Mean: 0.30 mg/dL
  sUA Observed, Median: 0.30 mg/dL
[12]
  sUA < 6 mg/dL, n (%): 5 (100%)
  sUA Change from Baseline, Mean (SD): −9.18 (4.135) mg/dL
  sUA Change from Baseline, Median: -9.30 mg/dL
  sUA Observed, Mean (SD): 0.30 (0.000) mg/dL
  sUA Observed, Median: 0.30 mg/dL
[13]
  sUA < 6 mg/dL, %: (100%)
  sUA Change from Baseline, Mean: -8.97 mg/dL
  sUA Change from Baseline, Median: -8.80 mg/dL
  sUA Observed, Mean: 0.30 mg/dL
  sUA Observed, Median: 0.30 mg/dL
